{"source": "paper PMC4369838", "molecular_target": "Synthetic Aβ(1–42), prepared as amyloid-beta-derived diffusible ligands (ADDLs) (human)", "experiment": "SEC; analytical SEC of the ADDL preparation (Superdex 75 5/150, PBS, pH 7.4); oligomer peak area divided by oligomer plus monomer peak area; three separate experiments", "data": [{"substance": "Synthetic Aβ(1–42), prepared as amyloid-beta-derived diffusible ligands (ADDLs) (peptide)", "values": [{"measurement": "percent of total Aβ in species larger than monomers", "value": 47, "unit": "%"}]}]}
